Patent US20240270846A1 (published 2024)
Changes are numbered by the printed parent chain. Names and notes keep the numbering of the source. One block for each binder: values may come before it.

What was measured:
[1] = target: T1, CD3 epsilon homodimer protein (UniProt P07766 23-126); experiment: SPR Biacore T200, CD3e homodimer on chip, antibody analyte;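 further: CD3 epsilon homodimer amine-coupled on CM4 sensor chip, antibodies injected as analyte at 25 °C in HBS-EP+, ratio ≥0.8 taken as binding retained versus unaltered parent antibody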
T1 construct: Construct of the homodimer is not described; also called CD3 (CD3 epsilon)
T1 sequence (P07766 23-126): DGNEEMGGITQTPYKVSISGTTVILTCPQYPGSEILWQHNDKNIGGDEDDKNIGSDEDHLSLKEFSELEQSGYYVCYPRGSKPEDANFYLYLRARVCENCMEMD

[2] = target: T2, CD3 epsilon homodimer protein (UniProt P07766 23-126); experiment: SPR (Biacore T200), CD3e homodimer on CM4 chip, antibody as analyte; KD ratio vs unaltered GLS3000;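 further: CD3 epsilon homodimer amine-coupled to the sensor surface, antibodies injected as analyte at 25 °C with HBS-EP+ running buffer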
T2 construct: also called CD3 (CD3 epsilon)
T2 sequence (P07766 23-126): as above

- ratio of amounts bound (altered form/GLS3000) [1]: 1.17
B1: GLS3000 Y96F one-arm antibody (antibody, human IgG1, kappa, L234A L235A, N297A, name in Kabat numbering)
light: DIVMTQSPLSLPVTPGEPASISCRSSQSLVHSNRNTYLHWYQQKPGQAPRLLIYKVSNRFSGVPDRFSGSGSGTDFTLKISRVEAEDVGVYYCGQGTQVPFTFGQGTKLEIKRTVAAPSVFIFPPSDEQLKSGTASVVCLLNNFYPREAKVQWKVDNALQSGNSQESVTEQDSKDSTYSLSSTLTLSKADYEKHKVYACEVTHQGLSSPVTKSFNRGEC
heavy: QVQLVESGGGVVQPGRSLRLSCAASGFTFSNAWMHWVRQAPGKGLEWVAQIKAKSNNYATYYAESVKGRFTISRDDSKNSLYLQMNSLKTEDTAVYYCRYVHYGAYYGVDAWGQGTTVTVSSASTKGPSVFPLAPSSKSTSGGTAALGCLVKDYFPEPVTVSWNSGALTSGVHTFPAVLQSSGLYSLSSVVTVPSSSLGTQTYICNVNHKPSNTKVDKKVEPKSCDKTHTCPPCPAPEAAGGPSVFLFPPKPKDTLMISRTPEVTCVVVDVSHEDPEVKFNWYVDGVEVHNAKTKPREEQYASTYRVVSVLTVLHQDWLNGKEYKCKVSNKALPAPIEKTISKAKGQPREPQVYTLPPSRCELTKNQVSLSCAVKGFYPSDIAVEWESNGQPENNYKTTPPVLDSDGSFFLVSKLTVDKSRWQQGNVFSCSVMHEALHNHYTQKSLSLSPDYKDDDDK
chain: EPKSSDKTHTCPPCPAPELLGGPSVFLFPPKPKDTLMISRTPEVTCVVVDVSHEDPEVKFNWYVDGVEVHNAKTKPREEQYNSTYRVVSVLTVLHQDWLNGKEYKCKVSNKALPAPIEKTISKAKGQPREPQVCTLPPSRDELTKNQVSLWCLVKGFYPSDIAVEWESNGQPENNYKTTPPVLDSDGSFFLYSKLTVDKSRWQQGNVFSCSVMHEALHNRYTQKSLSLSP

- KD ratio to GLS3000 [2]: 2.8 ratio
B2: CE115HA000/GLS3000 N53D one-arm antibody (antibody, human IgG1, kappa, L234A L235A, N297A, name in Kabat numbering)
heavy: B1 heavy
chain: B1 chain
light: B1 light with N58D, F101Y
notes: one-arm IgG1

- KD ratio to GLS3000 [2]: 0.92 ratio
B3: CE115HA000/GLS3000 F55E one-arm antibody (antibody, human IgG1, kappa, L234A L235A, N297A, name in Kabat numbering)
heavy: B1 heavy
chain: B1 chain
light: B1 light with F60E, F101Y
notes: one-arm IgG1

- KD ratio to GLS3000 [2]: 1.27 ratio
B4: CE115HA000/GLS3000 F55R one-arm antibody (antibody, human IgG1, kappa, L234A L235A, N297A, name in Kabat numbering)
heavy: B1 heavy
chain: B1 chain
light: B1 light with F60R, F101Y
notes: one-arm IgG1

- KD ratio to GLS3000 [2]: 0.91 ratio
B5: CE115HA000/GLS3000 F55N one-arm antibody (antibody, human IgG1, kappa, L234A L235A, N297A, name in Kabat numbering)
heavy: B1 heavy
chain: B1 chain
light: B1 light with F60N, F101Y
notes: one-arm IgG1

- KD ratio to GLS3000 [2]: 1.13 ratio
B6: CE115HA000/GLS3000 F55Y one-arm antibody (antibody, human IgG1, kappa, L234A L235A, N297A, name in Kabat numbering)
heavy: B1 heavy
chain: B1 chain
light: B1 light with F60Y, F101Y
notes: one-arm IgG1

- ratio of amounts bound (altered form/GLS3000) [1]: 0.32
B7: GLS3000 Y96L one-arm antibody (antibody, human IgG1, kappa, L234A L235A, N297A, name in Kabat numbering)
light: B1 light with F101L
heavy: B1 heavy
chain: B1 chain

- KD ratio to GLS3000 [2]: 1.02 ratio
B8: CE115HA000/GLS3000 F55D one-arm antibody (antibody, human IgG1, kappa, L234A L235A, N297A, name in Kabat numbering)
heavy: B1 heavy
chain: B1 chain
light: B1 light with F60D, F101Y
notes: one-arm IgG1

- KD ratio to GLS3000 [2]: 1.15 ratio
B9: CE115HA000/GLS3000 F55S one-arm antibody (antibody, human IgG1, kappa, L234A L235A, N297A, name in Kabat numbering)
heavy: B1 heavy
chain: B1 chain
light: B1 light with F60S, F101Y
notes: one-arm IgG1

- ratio of amounts bound (altered form/GLS3000) [1]: 0.23
B10: GLS3000 Y96H one-arm antibody (antibody, human IgG1, kappa, L234A L235A, N297A, name in Kabat numbering)
light: B1 light with F101H
heavy: B1 heavy
chain: B1 chain

- KD ratio to GLS3000 [2]: 1.15 ratio
B11: CE115HA000/GLS3000 F55P one-arm antibody (antibody, human IgG1, kappa, L234A L235A, N297A, name in Kabat numbering)
heavy: B1 heavy
chain: B1 chain
light: B1 light with F60P, F101Y
notes: one-arm IgG1

- KD ratio to GLS3000 [2]: 34.6 ratio
B12: CE115HA000/GLS3000 G89E one-arm antibody (antibody, human IgG1, kappa, L234A L235A, N297A, name in Kabat numbering)
heavy: B1 heavy
chain: B1 chain
light: B1 light with G94E, F101Y
notes: one-arm IgG1

- KD ratio to GLS3000 [2]: 1.28 ratio
B13: CE115HA000/GLS3000 F55I one-arm antibody (antibody, human IgG1, kappa, L234A L235A, N297A, name in Kabat numbering)
heavy: B1 heavy
chain: B1 chain
light: B1 light with F60I, F101Y
notes: one-arm IgG1

- KD ratio to GLS3000 [2]: 1.96 ratio
B14: CE115HA000/GLS3000 G89D one-arm antibody (antibody, human IgG1, kappa, L234A L235A, N297A, name in Kabat numbering)
heavy: B1 heavy
chain: B1 chain
light: B1 light with G94D, F101Y
notes: one-arm IgG1

- KD ratio to GLS3000 [2]: 1.22 ratio
B15: CE115HA000/GLS3000 F55K one-arm antibody (antibody, human IgG1, kappa, L234A L235A, N297A, name in Kabat numbering)
heavy: B1 heavy
chain: B1 chain
light: B1 light with F60K, F101Y
notes: one-arm IgG1

- KD ratio to GLS3000 [2]: 1.02 ratio
B16: CE115HA000/GLS3000 F55H one-arm antibody (antibody, human IgG1, kappa, L234A L235A, N297A, name in Kabat numbering)
heavy: B1 heavy
chain: B1 chain
light: B1 light with F60H, F101Y
notes: one-arm IgG1

- KD ratio to GLS3000 [2]: 1.43 ratio
B17: CE115HA000/GLS3000 F55L one-arm antibody (antibody, human IgG1, kappa, L234A L235A, N297A, name in Kabat numbering)
heavy: B1 heavy
chain: B1 chain
light: B1 light with F60L, F101Y
notes: one-arm IgG1

- KD ratio to GLS3000 [2]: 1.72 ratio
B18: CE115HA000/GLS3000 F55W one-arm antibody (antibody, human IgG1, kappa, L234A L235A, N297A, name in Kabat numbering)
heavy: B1 heavy
chain: B1 chain
light: B1 light with F60W, F101Y
notes: one-arm IgG1

- KD ratio to GLS3000 [2]: 1.09 ratio
B19: CE115HA000/GLS3000 F55Q one-arm antibody (antibody, human IgG1, kappa, L234A L235A, N297A, name in Kabat numbering)
heavy: B1 heavy
chain: B1 chain
light: B1 light with F60Q, F101Y
notes: one-arm IgG1

- KD ratio to GLS3000 [2]: 1.29 ratio
B20: CE115HA000/GLS3000 F55M one-arm antibody (antibody, human IgG1, kappa, L234A L235A, N297A, name in Kabat numbering)
heavy: B1 heavy
chain: B1 chain
light: B1 light with F60M, F101Y
notes: one-arm IgG1

- KD ratio to GLS3000 [2]: 1.1 ratio
B21: CE115HA000/GLS3000 G89A one-arm antibody (antibody, human IgG1, kappa, L234A L235A, N297A, name in Kabat numbering)
heavy: B1 heavy
chain: B1 chain
light: B1 light with G94A, F101Y
notes: one-arm IgG1

- KD ratio to GLS3000 [2]: 2.42 ratio
B22: CE115HA000/GLS3000 F55T one-arm antibody (antibody, human IgG1, kappa, L234A L235A, N297A, name in Kabat numbering)
heavy: B1 heavy
chain: B1 chain
light: B1 light with F60T, F101Y
notes: one-arm IgG1

- KD ratio to GLS3000 [2]: 1.12 ratio
B23: CE115HA000/GLS3000 F55V one-arm antibody (antibody, human IgG1, kappa, L234A L235A, N297A, name in Kabat numbering)
heavy: B1 heavy
chain: B1 chain
light: B1 light with F60V, F101Y
notes: one-arm IgG1

- KD ratio to GLS3000 [2]: 1.15 ratio
B24: CE115HA000/GLS3000 F55G one-arm antibody (antibody, human IgG1, kappa, L234A L235A, N297A, name in Kabat numbering)
heavy: B1 heavy
chain: B1 chain
light: B1 light with F60G, F101Y
notes: one-arm IgG1
